US20260216242A1 (ALMAC DISCOVERY, published 2026)
Numbering of substitutions follows the chain as printed. Numbers in names are those of the source.

T1: human ALPI (intestinal alkaline phosphatase) expressed on the surface of CHO cells (human, UniProt P09923 20-503)
T1 sequence (looked up): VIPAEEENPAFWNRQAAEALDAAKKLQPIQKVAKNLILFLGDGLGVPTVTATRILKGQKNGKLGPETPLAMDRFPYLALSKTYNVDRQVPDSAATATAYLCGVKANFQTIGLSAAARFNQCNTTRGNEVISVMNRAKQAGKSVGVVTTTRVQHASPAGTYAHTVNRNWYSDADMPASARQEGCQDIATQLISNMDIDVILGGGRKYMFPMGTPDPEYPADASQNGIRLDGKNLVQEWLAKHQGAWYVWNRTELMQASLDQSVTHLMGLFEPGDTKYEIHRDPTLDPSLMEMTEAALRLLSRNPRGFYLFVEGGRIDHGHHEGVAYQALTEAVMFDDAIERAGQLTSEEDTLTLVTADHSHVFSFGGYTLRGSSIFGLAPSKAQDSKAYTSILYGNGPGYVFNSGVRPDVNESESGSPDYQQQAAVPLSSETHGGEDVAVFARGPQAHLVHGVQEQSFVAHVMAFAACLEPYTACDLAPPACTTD

T2: human ALPL (tissue non-specific alkaline phosphatase) expressed on the surface of CHO cells (human, UniProt P05186 18-501)
T2 sequence (looked up): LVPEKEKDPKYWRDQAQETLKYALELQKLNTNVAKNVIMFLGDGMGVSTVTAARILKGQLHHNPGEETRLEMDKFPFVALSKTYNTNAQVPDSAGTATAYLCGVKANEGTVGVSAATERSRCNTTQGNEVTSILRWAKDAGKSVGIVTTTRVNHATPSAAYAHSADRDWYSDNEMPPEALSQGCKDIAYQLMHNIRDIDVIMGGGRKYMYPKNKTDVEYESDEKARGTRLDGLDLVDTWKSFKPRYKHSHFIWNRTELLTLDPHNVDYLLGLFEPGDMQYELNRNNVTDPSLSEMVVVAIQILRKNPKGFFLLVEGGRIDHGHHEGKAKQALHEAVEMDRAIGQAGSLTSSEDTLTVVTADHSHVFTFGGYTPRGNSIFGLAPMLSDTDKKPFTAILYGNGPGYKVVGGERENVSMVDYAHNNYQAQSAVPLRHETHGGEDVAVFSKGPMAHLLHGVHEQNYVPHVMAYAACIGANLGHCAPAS

B1: A06 E06-hFc (S239/442C T366Y/Y407T), [G4S]1 linker, MC-vc-PAB-MMAE conjugate, #710 (Fc fusion, DAR 4)
chain 1: QVHLVESGGGLVQAGGSLRLSCAASGRTFLSMGWFRQAPGKEREFVAAISWTGGSTGYADSVKGRFTISRESDKETMYLQMNSLKPEDTAVYYCAARGDVYYGGDDATRYKYWGQGTQVTVSSGGGGSEPKSSDKTHTCPPCPAPELLGGPCVFLFPPKPKDTLMISRTPEVTCVVVDVSHEDPEVKFNWYVDGVEVHNAKTKPREEQYNSTYRVVSVLTVLHQDWLNGKEYKCKVSNKALPAPIEKTISKAKGQPREPQVYTLPPSRDELTKNQVSLYCLVKGFYPSDIAVEWESNGQPENNYKTTPPVLDSDGSFFLYSKLTVDKSRWQQGNVFSCSVMHEALHNHYTQKSLCLSPGK
chain 2: QVHLVESGGGLVQAGGSLRLSCAASRRSFSEYAMGWFRQAPGKEREFVAAIGWSGVIEYADSVKGRFTISRDNAKDTVYLQMNSLKPEDTAVYYCAAGLGIRVVSQTPAYWGQGTQVTVSSGGGGSEPKSSDKTHTCPPCPAPELLGGPCVFLFPPKPKDTLMISRTPEVTCVVVDVSHEDPEVKFNWYVDGVEVHNAKTKPREEQYNSTYRVVSVLTVLHQDWLNGKEYKCKVSNKALPAPIEKTISKAKGQPREPQVYTLPPSRDELTKNQVSLTCLVKGFYPSDIAVEWESNGQPENNYKTTPPVLDSDGSFFLTSKLTVDKSRWQQGNVFSCSVMHEALHNHYTQKSLCLSPGK
modifications: MC-vc-PAB-MMAE on Cys of S239C and S442C (EU numbering)
notes: Biparatopic knob-into-hole VHH-hFc heterodimer, DAR 4; The assignment of T366Y to the first named VHH and Y407T to the second follows the order of the name; No paragraph spells out this pair; also called A06-E06-hFc-vcPAB-MMAE; A06-E06 hFc-vc-MMAE
B2: A06 E10-hFc (S239/442C T366Y/Y407T), [G4S]1 linker, MC-vc-PAB-MMAE conjugate, #711 (Fc fusion, DAR 4)
chain 1: B1 chain 1
chain 2: QVQLVESGGGLVQAGGSLRLSCAVSGRALSDYNIGWFRQAPGKEREFVARKTWDGSSTRYDDSVKGRFTVSIEDAKNTAYLQMSSLKTEDTAVYYCAAGRYSRARGWEYDYWGQGTQVTVSSGGGGSEPKSSDKTHTCPPCPAPELLGGPCVFLFPPKPKDTLMISRTPEVTCVVVDVSHEDPEVKFNWYVDGVEVHNAKTKPREEQYNSTYRVVSVLTVLHQDWLNGKEYKCKVSNKALPAPIEKTISKAKGQPREPQVYTLPPSRDELTKNQVSLTCLVKGFYPSDIAVEWESNGQPENNYKTTPPVLDSDGSFFLTSKLTVDKSRWQQGNVFSCSVMHEALHNHYTQKSLCLSPGK
modifications: MC-vc-PAB-MMAE on Cys of S239C and S442C (EU numbering)
notes: Biparatopic knob-into-hole VHH-hFc heterodimer, DAR 4; The assignment of T366Y to the first named VHH and Y407T to the second follows the order of the name; No paragraph spells out this pair; also called A06-E10-hFc-vcPAB-MMAE; A06-E10 hFc-vc-MMAE
B3: A06 F05-hFc (S239/442C T366Y/Y407T), [G4S]1 linker, MC-vc-PAB-MMAE conjugate, #712 (Fc fusion, DAR 4)
chain 1: B1 chain 1
chain 2: B2 chain 2 with V24A, L29F, S30G, K51R, E73D, D74N, S84N, A104V
modifications: MC-vc-PAB-MMAE on Cys of S239C and S442C (EU numbering)
notes: also called A06-F05-hFc-vcPAB-MMAE; A06-F05 hFc-vc-MMAE
B4: A06 E06-hFc (S239/442C T366Y/Y407T), [G4S]3 linker, MC-vc-PAB-MMAE conjugate, #639 (Fc fusion, DAR 4)
chain 1: QVHLVESGGGLVQAGGSLRLSCAASGRTFLSMGWFRQAPGKEREFVAAISWTGGSTGYADSVKGRFTISRESDKETMYLQMNSLKPEDTAVYYCAARGDVYYGGDDATRYKYWGQGTQVTVSSGGGGSGGGGSGGGGSEPKSSDKTHTCPPCPAPELLGGPCVFLFPPKPKDTLMISRTPEVTCVVVDVSHEDPEVKFNWYVDGVEVHNAKTKPREEQYNSTYRVVSVLTVLHQDWLNGKEYKCKVSNKALPAPIEKTISKAKGQPREPQVYTLPPSRDELTKNQVSLYCLVKGFYPSDIAVEWESNGQPENNYKTTPPVLDSDGSFFLYSKLTVDKSRWQQGNVFSCSVMHEALHNHYTQKSLCLSPGK
chain 2: QVHLVESGGGLVQAGGSLRLSCAASRRSFSEYAMGWFRQAPGKEREFVAAIGWSGVIEYADSVKGRFTISRDNAKDTVYLQMNSLKPEDTAVYYCAAGLGIRVVSQTPAYWGQGTQVTVSSGGGGSGGGGSGGGGSEPKSSDKTHTCPPCPAPELLGGPCVFLFPPKPKDTLMISRTPEVTCVVVDVSHEDPEVKFNWYVDGVEVHNAKTKPREEQYNSTYRVVSVLTVLHQDWLNGKEYKCKVSNKALPAPIEKTISKAKGQPREPQVYTLPPSRDELTKNQVSLTCLVKGFYPSDIAVEWESNGQPENNYKTTPPVLDSDGSFFLTSKLTVDKSRWQQGNVFSCSVMHEALHNHYTQKSLCLSPGK
modifications: MC-vc-PAB-MMAE on Cys of S239C and S442C (EU numbering)
notes: Biparatopic knob-into-hole VHH-hFc heterodimer, DAR 4; The assignment of T366Y to the first named VHH and Y407T to the second follows the order of the name; No paragraph spells out this pair; also called A06-E06 hFc-vcPAB-MMAE; A06-E06hFc-vc-MMAE
B5: A06 E10-hFc (S239/442C T366Y/Y407T), [G4S]3 linker, MC-vc-PAB-MMAE conjugate, #664 (Fc fusion, DAR 4)
chain 1: B4 chain 1
chain 2: QVQLVESGGGLVQAGGSLRLSCAVSGRALSDYNIGWFRQAPGKEREFVARKTWDGSSTRYDDSVKGRFTVSIEDAKNTAYLQMSSLKTEDTAVYYCAAGRYSRARGWEYDYWGQGTQVTVSSGGGGSGGGGSGGGGSEPKSSDKTHTCPPCPAPELLGGPCVFLFPPKPKDTLMISRTPEVTCVVVDVSHEDPEVKFNWYVDGVEVHNAKTKPREEQYNSTYRVVSVLTVLHQDWLNGKEYKCKVSNKALPAPIEKTISKAKGQPREPQVYTLPPSRDELTKNQVSLTCLVKGFYPSDIAVEWESNGQPENNYKTTPPVLDSDGSFFLTSKLTVDKSRWQQGNVFSCSVMHEALHNHYTQKSLCLSPGK
modifications: MC-vc-PAB-MMAE on Cys of S239C and S442C (EU numbering)
notes: Biparatopic knob-into-hole VHH-hFc heterodimer, DAR 4; The assignment of T366Y to the first named VHH and Y407T to the second follows the order of the name; No paragraph spells out this pair; also called A06-E10 hFc-vcPAB-MMAE; A06-E10hFc-vc-MMAE
B6: A06 F05-hFc (S239/442C T366Y/Y407T), [G4S]3 linker, MC-vc-PAB-MMAE conjugate, #665 (Fc fusion, DAR 4)
chain 1: B4 chain 1
chain 2: B5 chain 2 with V24A, L29F, S30G, K51R, E73D, D74N, S84N, A104V
modifications: MC-vc-PAB-MMAE on Cys of S239C and S442C (EU numbering)
notes: Biparatopic knob-into-hole VHH-hFc heterodimer, DAR 4; also called A06-F05 hFc-vcPAB-MMAE; A06-F05 hFc-vc-MMAE

Molecular target: T3, human ALPPL2 (alkaline phosphatase, germ cell type) expressed on the surface of CHO cells (human, UniProt P10696 20-503)
Assay: cell-based or functional assay

T3 sequence (P10696 20-503): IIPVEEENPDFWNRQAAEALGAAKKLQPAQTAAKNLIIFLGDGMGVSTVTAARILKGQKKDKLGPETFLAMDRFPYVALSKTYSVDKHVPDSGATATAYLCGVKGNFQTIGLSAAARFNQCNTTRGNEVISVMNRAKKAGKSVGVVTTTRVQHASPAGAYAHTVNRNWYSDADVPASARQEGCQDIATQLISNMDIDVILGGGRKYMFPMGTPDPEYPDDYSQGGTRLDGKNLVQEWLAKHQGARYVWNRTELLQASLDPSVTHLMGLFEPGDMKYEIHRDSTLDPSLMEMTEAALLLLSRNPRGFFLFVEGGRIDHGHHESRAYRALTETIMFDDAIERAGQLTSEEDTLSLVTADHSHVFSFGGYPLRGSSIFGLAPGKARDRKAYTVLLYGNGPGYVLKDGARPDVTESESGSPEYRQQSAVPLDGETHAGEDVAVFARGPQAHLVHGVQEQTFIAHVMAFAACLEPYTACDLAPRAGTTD

Binder	IC50 at 96 h, cell-killing of CHO-ALPPL2 cells [nM]
B1	18.1
B2	14.1
B3	14.8
B4	8.6
B5	7.3
B6	7.9

Molecular target: T1, human ALPI (intestinal alkaline …)
Assay: cell-based or functional assay

Binder	IC50 at 96 h, cell-killing of CHO-ALPI cells (estimated from data extrapolation) [nM]	IC50 at 96 h, cell-killing of CHO-ALPI cells [nM]
B1	~846	
B2	~673	
B3	~776	
B4		> 1000
B5		> 1000
B6		> 1000

Molecular target: T2, human ALPL (tissue non-specific …)
Assay: cell-based or functional assay

Binder	IC50 at 96 h, cell-killing of CHO-ALPL cells (estimated from data extrapolation) [nM]	IC50 at 96 h, cell-killing of CHO-ALPL cells [nM]
B1	~699	
B2	~597	
B3	~551	
B4		> 1000
B5		> 1000
B6		> 1000

Molecular target: T2, human ALPL (tissue non-specific …)
Assay: flow cytometry, CHO-ALPL cells

Binder	binding result
B1	no binding (tested: 350 nM (highest concentration))
B2	no binding (tested: 350 nM (highest concentration))
B3	no binding (tested: 350 nM (highest concentration))
B4	no binding (tested: 350 nM (highest concentration))
B5	no binding (tested: 350 nM (highest concentration))
B6	no binding (tested: 350 nM (highest concentration))

Molecular target: T1, human ALPI (intestinal alkaline …)
Assay: flow cytometry on CHO-ALPI cells

Binder	MFI on CHO-ALPI cells at 350 nM as percent of MFI on CHO-ALPP cells (KDapp not-determinable) [%]
B1	≤ 1
B2	≤ 1
B3	≤ 1
B4	≤ 1
B5	≤ 1
B6	≤ 1

Molecular target: T4, human ALPP (alkaline phosphatase, placental type) expressed on the surface of CHO cells (human, UniProt P05187 23-506)
T4 construct: also called CHO-ALPP; hALPP
Assay: flow cytometry on CHO-ALPP cells, apparent KD (KDapp)
Experimental: (§1) Biparatopic VHH-hFc drug conjugates were assessed for human ALPP, ALPPL2, ALPI and ALPL cell-surface binding by flow cytometry. Binders were screened on CHO cells stably expressing human ALPP, ALPPL2, ALPI or ALPL.
(§2) Cell surface binding of test agents to hALPP isoforms was characterized in four CHO-ALPP isoform transfectant cell lines (CHO-ALPP, CHO-ALPPL2, CHO-ALPI and CHO-ALPL) and the resulting KDapp values determined. Adherent cells were detached from tissue culture flasks by incubating with 0.1% EDTA/PBS solution at 37° C. for […] or until cells detached easily. Cells were re-suspended in ice-cold PBS/2% FCS in 15 ml tubes and centrifuged at 1700 rpm for 5 mins at 4° C. Supernatant was removed and the cell pellet re-suspended in PBS/2% FCS. […] Cells were incubated with 100 μl of test agents at a range of concentrations, plus controls for 1 hr on ice. The sample plate was centrifuged at 1700 rpm for 5 mins at 4° C. The supernatant was removed, and a wash performed by re-suspending the cell pellets in 0.25 mL of ice-cold PBS/2% FCS using a multichannel pipette. Samples were again centrifuged at 1700 rpm for 5 min at 4° C. Supernatant was removed and two further washes performed as described. After the final wash and centrifugation step, excess liquid was removed by blotting the plate on tissue paper. Binding of VHH-hFc agents was determined by adding 100 μl of Fitc-anti-human Ab (ThermoFisher) and incubating for 30 mins on ice in the dark. Wash steps were performed as described previously. All cell pellets were finally re-suspended in 0.28 ml of ice-cold PBS/2% FCS and left on ice in the dark prior to analysis on a Merck-Millipore Guava EasyCyte HT or Thermo Fisher Attune N×T flow cytometer.

Binder	Kd [nM]
B1	11
B2	13.4
B3	10.6
B4	8.5
B5	8.5
B6	9.8

Molecular target: T3, human ALPPL2 (alkaline phosphatase, …)
Assay: flow cytometry on CHO-ALPPL2 cells, apparent KD (KDapp)
Experimental: as §1, §2

Binder	Kd [nM]
B1	5.6
B2	7.6
B3	5.7
B4	4.2
B5	3.7
B6	4.9
